The text below walks through data of patent US6372898 (SCHERING, dated 2002).

Like-named read-outs stand apart in the source and are kept apart here.

The target of data set [1] is T1, cytokine receptor common gamma chain (γc), wild type.
T1 chain: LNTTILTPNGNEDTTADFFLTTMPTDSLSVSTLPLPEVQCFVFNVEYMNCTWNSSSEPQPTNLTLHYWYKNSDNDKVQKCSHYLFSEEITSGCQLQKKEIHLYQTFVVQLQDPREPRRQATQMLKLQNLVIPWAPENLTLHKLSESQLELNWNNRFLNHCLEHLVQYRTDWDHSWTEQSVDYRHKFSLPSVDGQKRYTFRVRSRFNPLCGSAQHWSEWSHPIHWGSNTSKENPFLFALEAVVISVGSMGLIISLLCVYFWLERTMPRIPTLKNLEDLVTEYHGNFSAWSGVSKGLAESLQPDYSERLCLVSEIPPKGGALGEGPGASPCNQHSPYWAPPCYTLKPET

The target in data set [2] is T2, cytokine receptor common gamma chain (γc), wild type (human, UniProt P31785 23-369).
T2 construct: also called WT γc; gc
T2 sequence: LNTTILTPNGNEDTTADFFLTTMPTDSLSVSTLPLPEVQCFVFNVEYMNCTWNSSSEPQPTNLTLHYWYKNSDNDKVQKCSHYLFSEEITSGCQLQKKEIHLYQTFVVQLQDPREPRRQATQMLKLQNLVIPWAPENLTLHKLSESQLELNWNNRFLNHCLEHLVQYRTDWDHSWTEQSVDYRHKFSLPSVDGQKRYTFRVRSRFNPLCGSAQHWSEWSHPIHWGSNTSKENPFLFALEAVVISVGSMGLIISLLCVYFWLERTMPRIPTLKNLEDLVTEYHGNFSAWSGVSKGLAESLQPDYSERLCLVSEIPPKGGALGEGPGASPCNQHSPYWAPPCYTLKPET
Kind of data set: co-immunoprecipitation (summary of the combined results).

Data set [3] relates to T3, cytokine receptor common gamma chain (γc), wild type.
T3 sequence: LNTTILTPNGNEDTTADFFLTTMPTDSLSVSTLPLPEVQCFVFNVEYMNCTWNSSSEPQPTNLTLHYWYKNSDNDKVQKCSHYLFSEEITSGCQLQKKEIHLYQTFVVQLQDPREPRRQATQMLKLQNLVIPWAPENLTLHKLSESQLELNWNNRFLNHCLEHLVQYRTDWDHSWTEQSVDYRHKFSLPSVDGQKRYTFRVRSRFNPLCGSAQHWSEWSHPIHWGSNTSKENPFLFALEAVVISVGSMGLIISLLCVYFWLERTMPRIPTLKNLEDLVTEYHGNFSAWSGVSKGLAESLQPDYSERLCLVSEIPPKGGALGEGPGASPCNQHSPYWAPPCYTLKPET
This is another data set of the same source.

B1: wild-type Jak3 (protein)
chain: MAPPSEETPLIPQRSCSLLSTEAGALHVLLPARAPGPPQRLSFSFGDHLAEDLCVQAAKASGILPVYHSLFALATEDLSCWFPPSHIFSVEDASTQVLLYRIRFYFPNWFGLEKCHRFGLRKDLASAILDLPVLEHLFAQHRSDLVSGRLPVGLSLKEQGECLSLAVLDLARMAREQAQRPGELLKTVSYKACLPPSLRDLIQGLSFVTRRAIRRTVRRALPRVAACQADRHSLMAKYIMDLERLDPAGAAETFHVGLPGALGGHDGLGLLRVAGDGGIAWTQGEQEVLQPFCDFPEIVDISIKQAPRVGPAGEHRLVTVTRTDNQILEAEFPGLPEALSFVALVDGYFRLTTDSQHFFCKEVAPPRLLEEVAEQCHGPITLDFAINKLKTGGSRPGSYVLRRSPQDFDSFLLTVCVQNPLGPDYKGCLIRRSPTGTFLLVGLSRPHSSLRELLATCWDGGLHVDGVAVTLTSCCIPRPKEKSNLIVVQRGHSPPTSSLVQPQSQYQLSQMTFHKIPADSLEWHENLGHGSFTKIYRGCRHEVVDGEARKTEVLLKVMDAKHKNCMESFLEAASLMSQVSYRHLVLLHGVCMAGDSTMVQEFVHLGAIDMYLRKRGHLVPASWKLQVVKQLAYALNYLEDKGLPHGNVSARKVLLAREGADGSPPFIKLSDPGVSPAVLSLEMLTDRIPWVAPECLREAQTLSLEADKWGFGATVWEVFSGVTMPISALDPAKKLQFYEDRQQLPAPKWTELALLIQQCMAYEPVQRPSFRAVIRDLNSLISSDYELLSDPTPGALAPRDGLWNGAQLYACQDPTIFEERHLKYISQLGKGNFGSVELCRYDPLAHNTGALVAVKQLQHSGPDQQRDFQREIQILKALHSDFIVKYRGVSYGPGRPELRLVMEYLPSGCLRDFLQRHRARLDASRLLLYSSQICKGMEYLGSRRCVHRDLAARNILVESEAHVKIADFGLAKLLPLDKDYYVVREPGQSPIFWYAPESLSDNIFSRQSDVWSFGVVLYELFTYCDKSCSPSAEFLRMMGCERDVPALCRLLELLEEGQRLPAPPACPAEVHELMKLCWAPSPQDRPSFSALGPQLDMLWSGSRGCETHAFTAHPEGKHHSLSFS
Regarding B1, in data set [1], the “IL-2 induced tyrosine phosphorylation of Jak3 in IL-2R+ fibroblasts” value is “Jak3 was rapidly tyrosine phosphorylated and associated with the IL-2 receptor complex”; the “IL-2 induced tyrosine phosphorylation of STAT5b in IL-2R+ fibroblasts” value was “Cells expressing wild type Jak3 (WT) exhibited tyrosine phosphorylation of STAT5b”.

B2: Jak3 Y100A mutant (enzyme)
chain: MAPPSEETPLIPQRSCSLLSTEAGALHVLLPARAPGPPQRLSFSFGDHLAEDLCVQAAKASGILPVYHSLFALATEDLSCWFPPSHIFSVEDASTQVLLARIRFYFPNWFGLEKCHRFGLRKDLASAILDLPVLEHLFAQHRSDLVSGRLPVGLSLKEQGECLSLAVLDLARMAREQAQRPGELLKTVSYKACLPPSLRDLIQGLSFVTRRAIRRTVRRALPRVAACQADRHSLMAKYIMDLERLDPAGAAETFHVGLPGALGGHDGLGLLRVAGDGGIAWTQGEQEVLQPFCDFPEIVDISIKQAPRVGPAGEHRLVTVTRTDNQILEAEFPGLPEALSFVALVDGYFRLTTDSQHFFCKEVAPPRLLEEVAEQCHGPITLDFAINKLKTGGSRPGSYVLRRSPQDFDSFLLTVCVQNPLGPDYKGCLIRRSPTGTFLLVGLSRPHSSLRELLATCWDGGLHVDGVAVTLTSCCIPRPKEKSNLIVVQRGHSPPTSSLVQPQSQYQLSQMTFHKIPADSLEWHENLGHGSFTKIYRGCRHEVVDGEARKTEVLLKVMDAKHKNCMESFLEAASLMSQVSYRHLVLLHGVCMAGDSTMVQEFVHLGAIDMYLRKRGHLVPASWKLQVVKQLAYALNYLEDKGLPHGNVSARKVLLAREGADGSPPFIKLSDPGVSPAVLSLEMLTDRIPWVAPECLREAQTLSLEADKWGFGATVWEVFSGVTMPISALDPAKKLQFYEDRQQLPAPKWTELALLIQQCMAYEPVQRPSFRAVIRDLNSLISSDYELLSDPTPGALAPRDGLWNGAQLYACQDPTIFEERHLKYISQLGKGNFGSVELCRYDPLAHNTGALVAVKQLQHSGPDQQRDFQREIQILKALHSDFIVKYRGVSYGPGRPELRLVMEYLPSGCLRDFLQRHRARLDASRLLLYSSQICKGMEYLGSRRCVHRDLAARNILVESEAHVKIADFGLAKLLPLDKDYYVVREPGQSPIFWYAPESLSDNIFSRQSDVWSFGVVLYELFTYCDKSCSPSAEFLRMMGCERDVPALCRLLELLEEGQRLPAPPACPAEVHELMKLCWAPSPQDRPSFSALGPQLDMLWSGSRGCETHAFTAHPEGKHHSLSFS
notes: not shown: C-terminal FLAG or Myc tag joined through a ClaI site
Turning to B2, the binding result in data set [2] is listed as “no binding”.

B3: Jak3 I102A (enzyme)
chain: MAPPSEETPLIPQRSCSLLSTEAGALHVLLPARAPGPPQRLSFSFGDHLAEDLCVQAAKASGILPVYHSLFALATEDLSCWFPPSHIFSVEDASTQVLLYRARFYFPNWFGLEKCHRFGLRKDLASAILDLPVLEHLFAQHRSDLVSGRLPVGLSLKEQGECLSLAVLDLARMAREQAQRPGELLKTVSYKACLPPSLRDLIQGLSFVTRRAIRRTVRRALPRVAACQADRHSLMAKYIMDLERLDPAGAAETFHVGLPGALGGHDGLGLLRVAGDGGIAWTQGEQEVLQPFCDFPEIVDISIKQAPRVGPAGEHRLVTVTRTDNQILEAEFPGLPEALSFVALVDGYFRLTTDSQHFFCKEVAPPRLLEEVAEQCHGPITLDFAINKLKTGGSRPGSYVLRRSPQDFDSFLLTVCVQNPLGPDYKGCLIRRSPTGTFLLVGLSRPHSSLRELLATCWDGGLHVDGVAVTLTSCCIPRPKEKSNLIVVQRGHSPPTSSLVQPQSQYQLSQMTFHKIPADSLEWHENLGHGSFTKIYRGCRHEVVDGEARKTEVLLKVMDAKHKNCMESFLEAASLMSQVSYRHLVLLHGVCMAGDSTMVQEFVHLGAIDMYLRKRGHLVPASWKLQVVKQLAYALNYLEDKGLPHGNVSARKVLLAREGADGSPPFIKLSDPGVSPAVLSLEMLTDRIPWVAPECLREAQTLSLEADKWGFGATVWEVFSGVTMPISALDPAKKLQFYEDRQQLPAPKWTELALLIQQCMAYEPVQRPSFRAVIRDLNSLISSDYELLSDPTPGALAPRDGLWNGAQLYACQDPTIFEERHLKYISQLGKGNFGSVELCRYDPLAHNTGALVAVKQLQHSGPDQQRDFQREIQILKALHSDFIVKYRGVSYGPGRPELRLVMEYLPSGCLRDFLQRHRARLDASRLLLYSSQICKGMEYLGSRRCVHRDLAARNILVESEAHVKIADFGLAKLLPLDKDYYVVREPGQSPIFWYAPESLSDNIFSRQSDVWSFGVVLYELFTYCDKSCSPSAEFLRMMGCERDVPALCRLLELLEEGQRLPAPPACPAEVHELMKLCWAPSPQDRPSFSALGPQLDMLWSGSRGCETHAFTAHPEGKHHSLSFS
notes: as for B2
As for B3, the binding result in data set [2] is “no binding”.

B4: Jak3 L98A (enzyme)
chain: MAPPSEETPLIPQRSCSLLSTEAGALHVLLPARAPGPPQRLSFSFGDHLAEDLCVQAAKASGILPVYHSLFALATEDLSCWFPPSHIFSVEDASTQVALYRIRFYFPNWFGLEKCHRFGLRKDLASAILDLPVLEHLFAQHRSDLVSGRLPVGLSLKEQGECLSLAVLDLARMAREQAQRPGELLKTVSYKACLPPSLRDLIQGLSFVTRRAIRRTVRRALPRVAACQADRHSLMAKYIMDLERLDPAGAAETFHVGLPGALGGHDGLGLLRVAGDGGIAWTQGEQEVLQPFCDFPEIVDISIKQAPRVGPAGEHRLVTVTRTDNQILEAEFPGLPEALSFVALVDGYFRLTTDSQHFFCKEVAPPRLLEEVAEQCHGPITLDFAINKLKTGGSRPGSYVLRRSPQDFDSFLLTVCVQNPLGPDYKGCLIRRSPTGTFLLVGLSRPHSSLRELLATCWDGGLHVDGVAVTLTSCCIPRPKEKSNLIVVQRGHSPPTSSLVQPQSQYQLSQMTFHKIPADSLEWHENLGHGSFTKIYRGCRHEVVDGEARKTEVLLKVMDAKHKNCMESFLEAASLMSQVSYRHLVLLHGVCMAGDSTMVQEFVHLGAIDMYLRKRGHLVPASWKLQVVKQLAYALNYLEDKGLPHGNVSARKVLLAREGADGSPPFIKLSDPGVSPAVLSLEMLTDRIPWVAPECLREAQTLSLEADKWGFGATVWEVFSGVTMPISALDPAKKLQFYEDRQQLPAPKWTELALLIQQCMAYEPVQRPSFRAVIRDLNSLISSDYELLSDPTPGALAPRDGLWNGAQLYACQDPTIFEERHLKYISQLGKGNFGSVELCRYDPLAHNTGALVAVKQLQHSGPDQQRDFQREIQILKALHSDFIVKYRGVSYGPGRPELRLVMEYLPSGCLRDFLQRHRARLDASRLLLYSSQICKGMEYLGSRRCVHRDLAARNILVESEAHVKIADFGLAKLLPLDKDYYVVREPGQSPIFWYAPESLSDNIFSRQSDVWSFGVVLYELFTYCDKSCSPSAEFLRMMGCERDVPALCRLLELLEEGQRLPAPPACPAEVHELMKLCWAPSPQDRPSFSALGPQLDMLWSGSRGCETHAFTAHPEGKHHSLSFS
notes: also called Leucine 98A; not shown: C-terminal FLAG or Myc tag joined through a ClaI site
For B4, the binding result in data set [2] was “no binding”.

B5: Jak3/Jak1 chimera J3 1-256 (enzyme, part only; not given: Jak1 C-terminal part and tag)
chain, part: MAPPSEETPLIPQRSCSLLSTEAGALHVLLPARAPGPPQRLSFSFGDHLAEDLCVQAAKASGILPVYHSLFALATEDLSCWFPPSHIFSVEDASTQVLLYRIRFYFPNWFGLEKCHRFGLRKDLASAILDLPVLEHLFAQHRSDLVSGRLPVGLSLKEQGECLSLAVLDLARMAREQAQRPGELLKTVSYKACLPPSLRDLIQGLSFVTRRAIRRTVRRALPRVAACQADRHSLMAKYIMDLERLDPAGAAETFHV
For the molecule B5, in data set [3], the “IL-2 induced tyrosine phosphorylation of STAT5b in IL-2R+ fibroblasts” value was “the J3 1-256 chimera (encoding both of the entire JH7/JH6 regions) responded to IL-2 stimulation by tyrosine phosphorylating STAT5b”; the “IL-2 induced tyrosine phosphorylation of the chimera in IL-2R+ fibroblasts” value is “The smallest region of a chimeric Jak3/Jak1 which reconstituted IL-2-induced tyrosine phosphorylation was a region that contained both of the entire JH7 and JH6 domains”; the “phosphorylation of IL-2Rβ after IL-2 in IL-2R+ fibroblasts” value is “it was only detected in cell lines that expressed Jak3/Jak1 chimeras having the entire JH7 and JH6 domains”.

B6: Jak3/Jak1 chimera J3 1-130 (enzyme, part only; not given: Jak1 C-terminal part and tag)
chain, part: MAPPSEETPLIPQRSCSLLSTEAGALHVLLPARAPGPPQRLSFSFGDHLAEDLCVQAAKASGILPVYHSLFALATEDLSCWFPPSHIFSVEDASTQVLLYRIRFYFPNWFGLEKCHRFGLRKDLASAILD
As to B6, in data set [3], the “IL-2 induced tyrosine phosphorylation of STAT5b in IL-2R+ fibroblasts” value is “cells expressing the J3 1-130 chimera also failed to demonstrate STAT5b phosphorylation”.
